According to article PMC8509050, “BZR1 Physically Interacts with SPL9 to Regulate the Vegetative Phase Change and Cell Elongation in Arabidopsis” (International Journal of Molecular Sciences, 2021):

Biological target: T1, glutathione S transferase (GST)-SQUAMOSA PROMOTER BINDING PROTEIN-LIKE9 (SPL9) (Arabidopsis thaliana, UniProt Q700W2 1-375)
T1 construct: SPL9, Arabidopsis thaliana; full-length cDNA without stop codon recombined into pDEST15 (N-GST); also called GST-SPL9; source: Escherichia coli, purified; not shown: GST, N-terminal, kept
T1 sequence (looked up): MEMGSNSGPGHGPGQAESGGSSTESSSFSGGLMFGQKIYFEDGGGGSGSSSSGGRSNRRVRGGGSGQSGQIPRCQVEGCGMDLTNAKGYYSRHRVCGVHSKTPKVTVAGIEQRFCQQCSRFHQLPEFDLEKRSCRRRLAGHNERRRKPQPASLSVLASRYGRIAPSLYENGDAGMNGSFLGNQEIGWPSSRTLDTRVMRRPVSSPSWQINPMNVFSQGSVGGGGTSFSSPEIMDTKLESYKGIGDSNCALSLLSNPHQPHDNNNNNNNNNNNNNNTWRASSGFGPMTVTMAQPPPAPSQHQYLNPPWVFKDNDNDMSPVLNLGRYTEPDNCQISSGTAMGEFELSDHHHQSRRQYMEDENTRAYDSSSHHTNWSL
Assay: pull-down; glutathione beads with 1 µg GST-SPL9 incubated with 1 µg MBP or MBP-BZR1; 20 mM Tris-HCl pH 7.5, 100 mM NaCl, 1 mM EDTA, 4 °C, 1 h; washed 10 times with 300 mM NaCl, 0.5% TritonX-100; anti-MBP and anti-GST blots
Conditions: both partners purified

B1: Maltose binding protein (MBP)-BRASSINAZOLE RESISTANT 1 (BZR1) (natural protein, Arabidopsis thaliana, UniProt Q8S307 1-336, looked up)
chain: MTSDGATSTSAAAAAAAAAAARRKPSWRERENNRRRERRRRAVAAKIYTGLRAQGDYNLPKHCDNNEVLKALCVEAGWVVEEDGTTYRKGCKPLPGEIAGTSSRVTPYSSQNQSPLSSAFQSPIPSYQVSPSSSSFPSPSRGEPNNNMSSTFFPFLRNGGIPSSLPSLRISNSCPVTPPVSSPTSKNPKPLPNWESIAKQSMAIAKQSMASFNYPFYAVSAPASPTHRHQFHTPATIPECDESDSSTVDSGHWISFQKFAQQQPFSASMVPTSPTFNLVKPAPQQMSPNTAAFQEIGQSSEFKFENSQVKPWEGERIHDVGMEDLELTLGNGKARG
notes: BZR1, Arabidopsis thaliana; also called MBP-BZR1; MBP-fused BZR1; source: Escherichia coli, purified
binding result: binds
